T1: Heat gamma
T1 chain: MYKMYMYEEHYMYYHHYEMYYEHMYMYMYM

B1: activated recombinant MMP1 (protein)
chain: FVLTEGNPRWEQTHLTYRIENYTPDLPRADVDHAIEKAFQLWSNVTPLTFTKVSEGQADIMISFVRGDHRDNSPFDGPGGNLAHAFQPGPGIGGDAHFDEDERWTNNFREYNLHRVAAHELGHSLGLSHSTDIGALMYPSYTFSGDVQLAQDDIDGIQAIYGRSQNPVQPIGPQTPKACDSKLTFDAITTIRGEVMFFKDRFYMRTNPFYPEVELNFISVFWPQLPNGLEAAYEFADRDEVRFFKGNKYWAVQGQNVLHGYPKDIYSSFGFPRTVKHIDAALSEENTGKTYFFVANKYWRYDEYKRSMDPGYPKMIAHDFPGIGHKVDAVFMKDGFFYFFHGTRQYKFDPKTKRILTLQKANSWFNCRKN
B2: activated recombinant MMP2 (protein)
chain: YNFFPRKPKWDKNQITYRIIGYTPDLDPETVDDAFARAFQVWSDVTPLRFSRIHDGEADIMINFGRWEHGDGYPFDGKDGLLAHAFAPGTGVGGDSHFDDDELWTLGEGQVVRVKYGNADGEYCKFPFLFNGKEYNSCTDTGRSDGFLWCSTTYNFEKDGKYGFCPHEALFTMGGNAEGQPCKFPFRFQGTSYDSCTTEGRTDGYRWCGTTEDYDRDKKYGFCPETAMSTVGGNSEGAPCVFPFTFLGNKYESCTSAGRSDGKMWCATTANYDDDRKWGFCPDQGYSLFLVAAHEFGHAMGLEHSQDPGALMAPIYTYTKNFRLSQDDIKGIQELYGASPDIDLGTGPTPTLGPVTPEICKQDIVFDGIAQIRGEIFFFKDRFIWRTVTPRDKPMGPLLVATFWPELPEKIDAVYEAPQEEKAVFFAGNEYWIYSASTLERGYPKPLTSLGLPPDVQRVDAAFNWSKNKKTYIFAGDKFWRYNEVKKKMDPGFPKLIADAWNAIPDNLDAVVDLQGGGHSYFFKGAYYLKLENQSLKSVKFGSIKSDWLGC

Target: T1, Heat gamma

Protein | cleavage of Fluorogenic Peptide substrate I by 0.2 µg activated recombinant MMP1, 60 µg Heat Gamma | cleavage of Fluorogenic Peptide substrate I by 0.2 µg activated recombinant MMP2, 60 µg Heat Gamma
B1 | Heat gamma efficiently inhibits the MMP1 activity as indicated by a decrease in relative fluorescence | –
B2 | – | Heat gamma efficiently inhibits the MMP2 activity as indicated by a decrease in relative fluorescence

— patent US20060205646
